Experimental findings from patent publication US20230220346A1, “BIOLOGICALLY SYNTHESIZED HYDROXYAPATITE FOR BONE REGENERATION AND TISSUE ENGINEERING” (BIOVENTURES, LLC, priority 2019, published 2023) are described below.

One assay deals with Saos-2 cell line. Description: Alizarin Red S (ARS) biomineralization assay in Saos-2. To be noted: MEMα/10% FBS with βGP (2 mM) plus the ALP (1 U/mL), 7 days. The format is cell-based, human. As for the experimental part: (§1) Biomineralization assays and Alizarin Red S staining: All human and mouse cell lines and human peripheral blood mononuclear cells (MNCs) were maintained in MEMα/10% FBS with penicillin/streptomycin and glutamine in a 37° C. humidified incubator with 5% CO2. […] The medium was replaced after 4 days. Alizarin Red S staining was performed at room temperature by removing the culture medium, washing the cells twice with 1×PBS (pH 7.4), fixing the cells in 10% neutral buffered formalin (Richard-Allan Scientific, Kalamazoo, Mich., USA) for 30 min, rinsing twice with Milli-Q water, staining with Alizarin Red S for 30 min, and destaining twice in Milli-Q water. A ZEISS inverted fluorescence/brightfield microscope equipped with an Infinity 3 digital camera and software system was used for imaging.

The next assay concerns MG-63 cell line. Nature of the assay: Alizarin Red S (ARS) biomineralization assay in MG-63. The format is cell-based, human. Conditions: MEMα/10% FBS with βGP (2 mM) plus the ALP (1 U/mL), 7 days. Here is the method:
as §1

Assay [1] concerns human blood mononuclear cells (MNCs). Nature of the assay: Alizarin Red S biomineralization assay in human blood mononuclear cells. It counts as cell-based. Conditions: MEMα/10% FBS with αGP alone or CIP alone (the other missing), 7 days. Here is the method: as §1
Coating cell culture plate with Collagen Type I, rat tail for mineralization assays: To coat a 48-well plate with Collagen Type I at 5 μg/cm^2, the stock solution was diluted to 25 μg/mL in 17.5 mM of acetic acid and aliquoted […] into each well. After incubating at room temperature for one hour, the Collagen Type I solution was removed. Each well was rinsed with 1×PBS (pH 7.4) and air-dried at room temperature. Human blood MNCs were suspended in the conditioned media and distributed into each well (1×10^5 cell/well) prior to a 7-day incubation. […]

For assay [2], the system named is MG-63 and Saos-2 cell lines. Description: Alizarin Red S biomineralization assay: phosphate source comparison, titration, ascorbic acid (FIG. 1A, 1C, 1E-G). The format is cell-based, human. To be noted: FIG. 1E-G. As for the experimental part: as §1

B1: CIP: calf intestinal alkaline phosphatase (protein, listed as Bos taurus)
chain: MQGACVLLLLGLHLQLSLGLVPVEEEDPAFWNRQAAQALDVAKKLQPIQTAAKNVILFLGDGMGVPTVTATRILKGQMNGKLGPETPLAMDQFPYVALSKTYNVDRQVPDSAGTATAYLCGVKGNYRTIGVSAAARYNQCKTTRGNEVTSVMNRAKKAGKSVGVVTTTRVQHASPAGAYAHTVNRNWYSDADLPADAQMNGCQDIAAQLVNNMDIDVILGGGRKYMFPVGTPDPEYPDDASVNGVRKRKQNLVQAWQAKHQGAQYVWNRTALLQAADDSSVTHLMGLFEPADMKYNVQQDHTKDPTLQEMTEVALRVVSRNPRGFYLFVEGGRIDHGHHDDKAYMALTEAGMFDNAIAKANELTSELDTLILVTADHSHVFSFGGYTLRGTSIFGLAPSKALDSKSYTSILYGNGPGYALGGGSRPDVNDSTSEDPSYQQQAAVPQASETHGGEDVAVFARGPQAHLVHGVEEETFVAHIMAFAGCVEPYTDCNLPAPTTATSIPDAAHLAASPPPLALLAGAMLLLLAPTLY
modifications: (1)..(533) Bovine intestine alkaline phosphatase (CIP)
Take B1: the results for the “biomineralization (Alizarin Red S staining)” value (with Saos-2 cell line; in the assay with MG-63 cell line; in assay [1]) were “mineralized”, “mineralized” and “did not occur”, respectively. Besides, in assay [2], the “dose dependence of biomineralization (titration assays)” value is given as “depended on the doses”.

B2: SAP: shrimp hepatopancreas alkaline phosphatase (protein, listed as Pandalus borealis)
chain: MIGRTTFIALFVKVLTIWSFTKGEDCVWDNDVDYPEYPPLILDSSFQLVLPVLEGDQRITSVQSGSELILACPGREISALGSEDAQATCLGGKLVEVDGKEWNIVELGCTKMASETIHRNLGQCGDQDLGIYEVIGFDLPTTGHFYELIRVCFDPANETTIFSENIVHGASIAAKDIDPGRPSFKTSTGFFSVSMISVYSQRNQLELMKNLLGDDELAATIIDPSKQFYFAKGHMAPDADFVTVVEQDATYYYINALPQWQAFNNGNWKYLEYDTRDLAEKHGTDLTVYSGGWGVLELEDINGNPVEIYLGLAQDKKVVPAPALTWKVIYEKDTNRAAAIVGINNPHITTAPEPLCTDICSSLTWLDFDFGDLVHGYTYCCSVADLRAAIPNVPDLGDVDILDE
modifications: (1)..(404) Shrimp alkaline phosphatase (rSAP)
B2: the “biomineralization (Alizarin Red S staining)” value with Saos-2 cell line and in the assay with MG-63 cell line was “mineralized” throughout.

B3: ALPL: Recombinant human tissue-nonspecific alkaline phosphatase (R&D Systems) (protein, listed as Homo sapiens)
chain: MISPFLVLAIGTCLTNSLVPEKEKDPKYWRDQAQETLKYALELQKLNTNVAKNVIMFLGDGMGVSTVTAARILKGQLHHNPGEETRLEMDKFPFVALSKTYNTNAQVPDSAGTATAYLCGVKANEGTVGVSAATERSRCNTTQGNEVTSILRWAKDAGKSVGIVTTTRVNHATPSAAYAHSADRDWYSDNEMPPEALSQGCKDIAYQLMHNIRDIDVIMGGGRKYMYPKNKTDVEYESDEKARGTRLDGLDLVDTWKSFKPRYKHSHFIWNRTELLTLDPHNVDYLLGLFEPGDMQYELNRNNVTDPSLSEMVVVAIQILRKNPKGFFLLVEGGRIDHGHHEGKAKQALHEAVEMDRAIGQAGSLTSSEDTLTVVTADHSHVFTFGGYTPRGNSIFGLAPMLSDTDKKPFTAILYGNGPGYKVVGGERENVSMVDYAHNNYQAQSAVPLRHETHGGEDVAVFSKGPMAHLLHGVHEQNYVPHVMAYAACIGANLGHCAPASSAGSLAAGPLLLALALYPLSVLF
modifications: (1)..(524) Human tissue nonspecific alkaline phosphatase (ALPL)
Regarding B3, the “biomineralization (Alizarin Red S staining)” value in the assay on Saos-2 cell line and in the assay on MG-63 cell line was “biomineralization was observed” in each case.
